Reference: patent US20120316071A1 (published 2012)
Changes are numbered by the printed parent chain. In names and notes the source's numbering stands.

B1: Fab VH1-46_IGHD6-6*01_IGHJ1*01 S102A/S103P/S104F/H111F (APFF) & L6_IGKJ1*01 S28N/S30D/S31H (NDH) (Fab, V domains shown)
VH: QVQLVQSGAEVKKPGASVKVSCKASGYTFTSYYMHWVRQAPGQGLEWMGIINPSGGSTSYAQKFQGRVTMTRDTSTSTVYMELSSLRSEDTAVYYCAREEYAPFSAEYFQFWGQGTLVTVSS
VL: EIVLTQSPATLSLSPGERATLSCRASQNVDHYLAWYQQKPGQAPRLLIYDASNRATGIPARFSGSGSGTDFTLTISSLEPEDFAVYYCQQRSNWPPWTFGQGTKVEIKR
notes: Fab made in E. coli: VH in plasmid A (CH1, His6 and Flag tags), VL in plasmid C (kappa CL); also called H:APFF & L:NDH; APFF / NDH
B2: Fab VH1-46_IGHD6-6*01_IGHJ1*01 S102A/S103P/S104F/H111F (APFF) & L6_IGKJ1*01 S28N/S30D/S31H S52T (Fab, V domains shown)
VH: B1 VH
VL: B1 VL with S52T
notes: Fab made in E. coli: VH in plasmid A (CH1, His6 and Flag tags), VL in plasmid C (kappa CL); also called H:APFF & L:NDH S52T; APFF / NDH/S52T
B3: Fab VH1-46_IGHD6-6*01_IGHJ1*01 S102A/S103P/S104F/H111F (APFF) & L6_IGKJ1*01 S28N/S30D/S31H A55S (Fab, V domains shown)
VH: B1 VH
VL: B1 VL with A55S
notes: Fab made in E. coli: VH in plasmid A (CH1, His6 and Flag tags), VL in plasmid C (kappa CL); also called H:APFF & L:NDH A55S; APFF / NDH/A55S
B4: Fab VH1-46_IGHD6-6*01_IGHJ1*01 S102A/S103P/S104F/H111F (APFF) & L6_IGKJ1*01 S28N/S30D/S31H N53H (Fab, V domains shown)
VH: B1 VH
VL: B1 VL with N53H
notes: Fab made in E. coli: VH in plasmid A (CH1, His6 and Flag tags), VL in plasmid C (kappa CL); also called H:APFF & L:NDH N53H; APFF / NDH/N53H
B5: Fab VH1-46_IGHD6-6*01_IGHJ1*01 S102A/S103P/S104F/H111F (APFF) & L6_IGKJ1*01 S28N/S30D/S31H S52L (Fab, V domains shown)
VH: B1 VH
VL: B1 VL with S52L
notes: Fab made in E. coli: VH in plasmid A (CH1, His6 and Flag tags), VL in plasmid C (kappa CL); also called H:APFF & L:NDH S52L; APFF / NDH/S52L
B6: Fab VH1-46_IGHD6-6*01_IGHJ1*01 S102A/S103P/S104F/H111F (APFF) & L6_IGKJ1*01 S28N/S30D/S31H A55G (Fab, V domains shown)
VH: B1 VH
VL: B1 VL with A55G
notes: Fab made in E. coli: VH in plasmid A (CH1, His6 and Flag tags), VL in plasmid C (kappa CL); also called H:APFF & L:NDH A55G; APFF / NDH/A55G
B7: Fab VH5-51_IGHD5-18*01>3_IGHJ4*01 & V3-4_IGLJ1*01 (Fab, V domains shown)
VH: EVQLVQSGAEVKKPGESLKISCKGSGYSFTSYWIGWVRQMPGKGLEWMGIIYPGDSDTRYSPSFQGQVTISADKSISTAYLQWSSLKASDTAMYYCARRGYSYGYDYFDYWGQGTLVTVSS
VL: QTVVTQEPSFSVSPGGTVTLTCGLSSGSVSTSYYPSWYQQTPGQAPRTLIYSTNTRSSGVPDRFSGSILGNKAALTITGAQADDESDYYCVLYMGSGISYVFGTGTKVTVL
notes: Fab expressed in E. coli; VH was cloned into Plasmid A (CH1, His6 and Flag tags) and VL into Plasmid E (lambda CL); also called wildtype; parent Hit Fab VH5-51_IGHD5-18*01>3_IGHJ4*01 & V3-4_IGLJ1*01
B8: Fab VH5-51_IGHD5-18*01>3_IGHJ4*01 Y105A & V3-4_IGLJ1*01 (Fab, V domains shown)
VH: B7 VH with Y105A
VL: B7 VL
notes: Fab with CH1 (Plasmid A, His6 and Flag tags) and lambda CL (Plasmid E)
B9: Fab VH5-51_IGHD5-18*01>3_IGHJ4*01 S102A & V3-4_IGLJ1*01 (Fab, V domains shown)
VH: B7 VH with S102A
VL: B7 VL
notes: as for B8
B10: Fab VH5-51_IGHD5-18*01>3_IGHJ4*01 G100A & V3-4_IGLJ1*01 (Fab, V domains shown)
VH: B7 VH with G100A
VL: B7 VL
notes: as for B8
B11: Fab VH5-51_IGHD5-18*01>3_IGHJ4*01 G104A & V3-4_IGLJ1*01 (Fab, V domains shown)
VH: B7 VH with G104A
VL: B7 VL
notes: as for B8
B12: Fab VH5-51_IGHD5-18*01>3_IGHJ4*01 Y103A & V3-4_IGLJ1*01 (Fab, V domains shown)
VH: B7 VH with Y103A
VL: B7 VL
notes: as for B8

Target: T1, Recombinant Human DLL4 (delta-like protein 4) (human, UniProt Q9NR61 27-524)
T1 construct: also called rHuman DLL4
Test: ELISA, plate-coated DLL4, Fab 25 nM

Row | ELISA signal at 25 nM Fab | Binder
1 | 0.31 | B1
2 | 0.323 | B2
3 | 0.407 | B3
4 | 0.238 | B4
5 | 0.335 | B5
6 | 0.316 | B6

Target: T1, Recombinant Human DLL4 (delta-like …)
Test: ELISA, plate-coated DLL4, Fab 50 nM

Row | ELISA signal at 50 nM Fab | Binder
7 | 0.507 | B1
8 | 0.49 | B2
9 | 0.588 | B3
10 | 0.416 | B4
11 | 0.546 | B5
12 | 0.51 | B6

Target: T1, Recombinant Human DLL4 (delta-like …)
Test: ELISA, plate-coated DLL4, Fab 100 nM

Row | ELISA signal at 100 nM Fab | Binder
13 | 0.686 | B1
14 | 0.653 | B2
15 | 0.858 | B3
16 | 0.608 | B4
17 | 0.791 | B5
18 | 0.814 | B6

Target: T1, Recombinant Human DLL4 (delta-like …)
Test: ELISA, plate-coated DLL4, Fab 12.5 nM

Row | ELISA signal at 12.5 nM Fab | Binder
19 | 0.192 | B1
20 | 0.215 | B2
21 | 0.258 | B3
22 | 0.167 | B4
23 | 0.215 | B5
24 | 0.198 | B6

Target: T1, Recombinant Human DLL4 (delta-like …)
Test: ELISA, plate-coated DLL4, Fab 6.25 nM

Row | ELISA signal at 6.25 nM Fab | Binder
25 | 0.125 | B1
26 | 0.13 | B2
27 | 0.154 | B3
28 | 0.109 | B4
29 | 0.142 | B5
30 | 0.125 | B6

Target: T1, Recombinant Human DLL4 (delta-like …)
Test: ELISA, plate-coated DLL4, Fab 3.125 nM

Row | ELISA signal at 3.125 nM Fab | Binder
31 | 0.096 | B1
32 | 0.099 | B2
33 | 0.108 | B3
34 | 0.089 | B4
35 | 0.095 | B5
36 | 0.093 | B6

Target: T2, Recombinant Human DLL4 (delta-like protein 4) (human, UniProt Q9NR61 27-524)
T2 construct: Bought recombinant human DLL4 (R&D Systems Cat#1506-D4/CF); also called rHuman DLL4; Delta-like ligand 4
Test: ECL binding assay on immobilized DLL4, Fab at 0.04 µM

Row | Signal/Noise (0.04 µM) | Binder
37 | 14.7 | B7
38 | 9.6 | B8
39 | 2 | B9
40 | 30.4 | B10
41 | 15.5 | B11
42 | 1.2 | B12
